The text below walks through data of US20150344570A1 (published 2015).

The target in assay [1] is T1, FcγRIIa H (FcγRIIa, allotype with His at position 131), extracellular domain with C-terminal His tag (human, UniProt P12318 34-217).
T1 construct: extracellular domain; also called FcgRIIa H; 2aH; not shown: His tag at the C terminus
T1 sequence (looked up): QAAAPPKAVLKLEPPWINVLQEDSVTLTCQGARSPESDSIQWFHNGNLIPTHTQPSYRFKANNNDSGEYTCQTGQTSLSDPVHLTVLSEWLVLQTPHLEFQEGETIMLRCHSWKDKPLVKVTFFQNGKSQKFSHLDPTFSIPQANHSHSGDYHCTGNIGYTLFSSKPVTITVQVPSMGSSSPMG
The assay can be described thus: SPR (Biacore); He/Con_2aH divided by He/Con_2b (FcγRIIb).

The target in assay [2] is T2, FcγRIIb, extracellular domain with C-terminal His tag (human, UniProt P31994 43-217).
T2 construct: extracellular domain; also called FcgRIIb; 2b; not shown: His tag at the C terminus
T2 sequence (looked up): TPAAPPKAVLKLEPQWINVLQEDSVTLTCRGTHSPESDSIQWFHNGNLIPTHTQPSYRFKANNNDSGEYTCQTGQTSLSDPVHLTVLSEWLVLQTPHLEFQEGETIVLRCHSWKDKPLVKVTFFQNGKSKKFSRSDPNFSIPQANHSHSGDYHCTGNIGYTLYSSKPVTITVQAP
The assay can be described thus: SPR (Biacore), relative binding vs GpH7-A5/GpH7-B3/GpL16-k0. (Surface plasmon resonance follows binding to a sensor surface in real time, without labels.)

The target in assay [3] is T1, FcγRIIa H (FcγRIIa, allotype with His …). The assay is described as above.
In assay [4] the target is T3, FcγRIIa H (human FcγRIIa, allotype H131, extracellular domain with C-terminal His tag) (human, UniProt P12318 34-217).
T3 construct: extracellular domain; Soluble extracellular domain expressed in FreeStyle293 cells; used as analyte in Biacore; also called FcgRIIa H; FcγRIIa type H; not shown: His tag attached to the C terminus
T3 sequence (looked up): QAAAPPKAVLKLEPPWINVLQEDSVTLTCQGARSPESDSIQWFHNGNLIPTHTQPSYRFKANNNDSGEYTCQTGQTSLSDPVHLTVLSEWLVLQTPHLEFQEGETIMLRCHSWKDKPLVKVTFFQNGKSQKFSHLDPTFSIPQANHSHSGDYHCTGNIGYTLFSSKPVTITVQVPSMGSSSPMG
Kind of assay: SPR (Biacore T100), antibody captured on antigen-peptide chip, FcγRIIa H as analyte; relative binding. As to the method: Analysis of interaction between objective antibody and the FcγR was carried out using Biacore T100 (GE Healthcare). HBS-EP+ (GE Healthcare) was used as the running buffer, and the measurement temperature was set to 25° C. Chips produced by immobilizing the antigen peptide by the amine coupling method to a Series S Sencor Chip CM5 (GE Healthcare), or alternatively, chips produced by allowing preliminarily biotinylated antigen peptides to interact with and immobilize onto a Series S Sensor Chip SA (certified) (GE Healthcare) were used. Antibodies of interest were captured onto an antigen peptide-immobilized chip, and allowed to interact to each FcγR diluted with running buffer. To regenerate and repeatedly use the chip, the antibodies captured on the chip were washed off by reacting 10 mM glycine-HCl, pH 1.5.

B1: GpH7-A5/GpH7-B3 variant N325_06M/GpL16-k0 (antibody, human IgG1, kappa)
heavy 1: not shown
heavy 2: not shown
light: DIVMTQSPLSLPVTPGEPASISCQASESLVHSNRNTYLHWYLQKPGQSPQLLIYKVSNRFSGVPDRFSGSGSGTDFTLKISRVEAEDVGVYYCSQNTHVPPTFGQGTKVEIERTVAAPSVFIFPPSDEQLKSGTASVVCLLNNFYPREAKVQWKVDNALQSGNSQESVTEQDSKDSTYSLSSTLTLSKADYEKHKVYACEVTHQGLSSPVTKSFNRGEC
notes: Heterodimerized anti-glypican-3 IgG1; mutation in one H chain only; also called He Ab
Consider B1, for which, in assay [1], the “He_2aH/2b (IIaH/IIb)” value worked out at 0.22 ratio. The He/Con_2b in assay [2] is 217 % of HeCon Ab (=100). Moreover, in assay [3], the He/Con_2aH was 48.2 % of HeCon Ab (=100).

B2: GpH7-B3 variant T335_02A/GpL16-k0 (homodimerized antibody, Ho Ab) (antibody, human IgG1, kappa)
heavy: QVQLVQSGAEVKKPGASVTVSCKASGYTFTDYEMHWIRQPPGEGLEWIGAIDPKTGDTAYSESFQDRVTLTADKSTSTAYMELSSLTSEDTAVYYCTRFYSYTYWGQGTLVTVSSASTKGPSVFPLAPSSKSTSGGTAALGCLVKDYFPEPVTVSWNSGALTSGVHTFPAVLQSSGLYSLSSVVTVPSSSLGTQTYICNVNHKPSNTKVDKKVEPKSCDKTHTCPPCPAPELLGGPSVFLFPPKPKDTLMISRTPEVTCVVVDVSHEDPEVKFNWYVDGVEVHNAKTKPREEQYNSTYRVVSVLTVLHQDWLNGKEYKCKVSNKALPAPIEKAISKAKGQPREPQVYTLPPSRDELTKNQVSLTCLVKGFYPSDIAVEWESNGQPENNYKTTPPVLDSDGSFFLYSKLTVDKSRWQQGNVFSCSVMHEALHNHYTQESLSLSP
light: DIVMTQSPLSLPVTPGEPASISCQASESLVHSNRNTYLHWYLQKPGQSPQLLIYKVSNRFSGVPDRFSGSGSGTDFTLKISRVEAEDVGVYYCSQNTHVPPTFGQGTKVEIERTVAAPSVFIFPPSDEQLKSGTASVVCLLNNFYPREAKVQWKVDNALQSGNSQESVTEQDSKDSTYSLSSTLTLSKADYEKHKVYACEVTHQGLSSPVTKSFNRGEC
notes: Anti-glypican-3 IgG1 (G1d with K439E); the alteration stands in both H chains; also called T335_02A Ho Ab; T335A in both H chains
For B2, the Ho/Con_2aH in assay [4] is 103 relative binding activity (control homodimerized antibody GpH7-B3/GpL16-k0 = 100).

B3: GpH7-A5/GpH7-B3 variant T335_02A/GpL16-k0 (heterodimerized antibody, He Ab) (antibody, human IgG1, kappa)
heavy 1: not shown
heavy 2: not shown
light: DIVMTQSPLSLPVTPGEPASISCQASESLVHSNRNTYLHWYLQKPGQSPQLLIYKVSNRFSGVPDRFSGSGSGTDFTLKISRVEAEDVGVYYCSQNTHVPPTFGQGTKVEIERTVAAPSVFIFPPSDEQLKSGTASVVCLLNNFYPREAKVQWKVDNALQSGNSQESVTEQDSKDSTYSLSSTLTLSKADYEKHKVYACEVTHQGLSSPVTKSFNRGEC
notes: Anti-glypican-3 IgG1 heterodimer (D356K/H435R chain GpH7-A5 with K439E chain GpH7-B3 variant); the alteration stands in one H chain only; EU numbering; also called T335_02A He Ab; T335A in one H chain
As for B3, the He/Con_2aH in assay [4] was 101 relative binding activity (control heterodimerized antibody GpH7-A5/GpH7-B3/GpL16-k0 = 100).

B4: GpH7-B3 variant T335_06M/GpL16-k0 (homodimerized antibody, Ho Ab) (antibody, human IgG1, kappa)
heavy: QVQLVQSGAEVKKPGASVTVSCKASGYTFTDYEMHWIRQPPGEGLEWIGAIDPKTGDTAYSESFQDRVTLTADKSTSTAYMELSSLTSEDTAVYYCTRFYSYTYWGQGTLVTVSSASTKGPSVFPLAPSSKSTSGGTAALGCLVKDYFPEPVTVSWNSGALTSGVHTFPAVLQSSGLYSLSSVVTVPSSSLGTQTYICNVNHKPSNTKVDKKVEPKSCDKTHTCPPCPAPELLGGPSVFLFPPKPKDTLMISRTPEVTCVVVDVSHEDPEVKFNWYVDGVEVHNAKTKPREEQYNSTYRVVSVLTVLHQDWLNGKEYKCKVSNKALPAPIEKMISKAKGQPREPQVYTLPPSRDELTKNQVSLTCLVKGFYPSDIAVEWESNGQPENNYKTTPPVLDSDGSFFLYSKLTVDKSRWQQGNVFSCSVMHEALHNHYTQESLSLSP
light: DIVMTQSPLSLPVTPGEPASISCQASESLVHSNRNTYLHWYLQKPGQSPQLLIYKVSNRFSGVPDRFSGSGSGTDFTLKISRVEAEDVGVYYCSQNTHVPPTFGQGTKVEIERTVAAPSVFIFPPSDEQLKSGTASVVCLLNNFYPREAKVQWKVDNALQSGNSQESVTEQDSKDSTYSLSSTLTLSKADYEKHKVYACEVTHQGLSSPVTKSFNRGEC
notes: Anti-glypican-3 IgG1 (G1d with K439E); the alteration stands in both H chains; EU numbering; also called T335_06M Ho Ab; T335M in both H chains
In the case of B4, in assay [4], the Ho/Con_2aH was 106 relative binding activity (control homodimerized antibody GpH7-B3/GpL16-k0 = 100).

B5: GpH7-A5/GpH7-B3 variant N325_07I/GpL16-k0 (antibody, human IgG1, kappa)
heavy 1: not shown
heavy 2: not shown
light: DIVMTQSPLSLPVTPGEPASISCQASESLVHSNRNTYLHWYLQKPGQSPQLLIYKVSNRFSGVPDRFSGSGSGTDFTLKISRVEAEDVGVYYCSQNTHVPPTFGQGTKVEIERTVAAPSVFIFPPSDEQLKSGTASVVCLLNNFYPREAKVQWKVDNALQSGNSQESVTEQDSKDSTYSLSSTLTLSKADYEKHKVYACEVTHQGLSSPVTKSFNRGEC
notes: as for B1
On to B5, for which the “He_2aH/2b (IIaH/IIb)” value in assay [1] came to 0.22 ratio. Further, the He/Con_2b in assay [2] is 171 % of HeCon Ab (=100). Further, the He/Con_2aH in assay [3] was 38.1 % of HeCon Ab (=100).

B6: GpH7-B3 variant T335_05P/GpL16-k0 (homodimerized antibody, Ho Ab) (antibody, human IgG1, kappa)
heavy: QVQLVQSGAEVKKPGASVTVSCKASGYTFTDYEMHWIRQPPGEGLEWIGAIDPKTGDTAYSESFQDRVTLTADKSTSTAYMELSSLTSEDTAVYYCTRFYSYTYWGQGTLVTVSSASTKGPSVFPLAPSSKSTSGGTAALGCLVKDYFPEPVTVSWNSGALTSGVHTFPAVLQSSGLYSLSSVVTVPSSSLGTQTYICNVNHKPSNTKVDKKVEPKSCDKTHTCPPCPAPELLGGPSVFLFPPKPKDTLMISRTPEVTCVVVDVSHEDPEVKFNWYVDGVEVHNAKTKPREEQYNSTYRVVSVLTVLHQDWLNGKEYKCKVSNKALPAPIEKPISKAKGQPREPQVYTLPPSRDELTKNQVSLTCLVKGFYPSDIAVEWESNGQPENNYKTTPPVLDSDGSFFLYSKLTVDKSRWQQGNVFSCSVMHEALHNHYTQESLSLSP
light: DIVMTQSPLSLPVTPGEPASISCQASESLVHSNRNTYLHWYLQKPGQSPQLLIYKVSNRFSGVPDRFSGSGSGTDFTLKISRVEAEDVGVYYCSQNTHVPPTFGQGTKVEIERTVAAPSVFIFPPSDEQLKSGTASVVCLLNNFYPREAKVQWKVDNALQSGNSQESVTEQDSKDSTYSLSSTLTLSKADYEKHKVYACEVTHQGLSSPVTKSFNRGEC
notes: Anti-glypican-3 IgG1 (G1d with K439E); the alteration stands in both H chains; EU numbering; also called T335_05P Ho Ab; T335P in both H chains
On to B6, for which the Ho/Con_2aH in assay [4] was 115 relative binding activity (control homodimerized antibody GpH7-B3/GpL16-k0 = 100).

B7: GpH7-A5/GpH7-B3 variant N325_10E/GpL16-k0 (antibody, human IgG1, kappa)
heavy 1: not shown
heavy 2: not shown
light: DIVMTQSPLSLPVTPGEPASISCQASESLVHSNRNTYLHWYLQKPGQSPQLLIYKVSNRFSGVPDRFSGSGSGTDFTLKISRVEAEDVGVYYCSQNTHVPPTFGQGTKVEIERTVAAPSVFIFPPSDEQLKSGTASVVCLLNNFYPREAKVQWKVDNALQSGNSQESVTEQDSKDSTYSLSSTLTLSKADYEKHKVYACEVTHQGLSSPVTKSFNRGEC
notes: as for B1
Consider B7, for which the “He_2aH/2b (IIaH/IIb)” value in assay [1] was 0.55 ratio. Further, in assay [2], the He/Con_2b was 95.9 % of HeCon Ab (=100). The He/Con_2aH in assay [3] is 52.5 % of HeCon Ab (=100).
